Data as given in patent US20240002499A1 (UNIVERSITA DEGLI STUDI DI MILANO, published 2024).

T1: QVELFV sequence (human)
T1 peptide: QVELFV

T2: QVELF sequence (human)
T2 peptide: QVELF

B1: tmCLIC1omab (antibody, IgG1, V domains shown)
VH: EVMLVESGGGLVKPGGSLKLSCAASGFAFSNYAMSWIRQIPEKRLEWVATISTGGSSTFYPDSVKGRFTISRDNAKNTLYLQMSSLRSEDTAMYYCTRHAYEAWFAYWGQGTLVTVSA
VL: QIVLTQSPALMSASPGEKVTMTCSASSSVSYMYWYQQRPRSSPKPWIYLTSTLASGVPTRFSGSGSGTSYSLTISSMEAEDAATYYCQQWNSHPLTFGSGTKLEIK
notes: IgG1 class monoclonal antibody from mouse hybridoma; also called tmCLIComab; anti-tmCLIC1 monoclonal antibody
B2: class IgG2b antibody containing the heavy chain variable region SEQ ID NO:15 and the light chain variable region SEQ ID NO:16 (antibody, V domains shown)
VH: EVKLVESGGGLVKPGGSLKLSCAASGFTFSGYVMSWVRQTPDKRLEWVASISSGGSSYYSDRVKGRLTISRDNARNILFLQMSSLRSEDSAMYYCANGYNYAMDYWGQGTSVTVSS
VL: DIVMTQSHKFMSISVGDRVSITCKASQDVGTAVAWYQQKPGQSPQLLIYWASTWHTGVPDRFTGSGSGTDFTLTITNVQSEDLADYFCQQYKLFPLTFGAGTRLELK
notes: IgG2b

What was measured:
QVELFV sequence = target: T1, QVELFV sequence; assay: PEPperMAP linear peptide microarray
Protocol: (§1) PEPperMAP epitope Mapping® of the tmCLIC1omab antibody was conducted against the peptide […] (amino acids 3-24 of the CLIC1 protein) translated to linear peptides consisting of 5, 10 and 15 amino acids with peptide-peptide overlaps of 4, 9 and 14 amino acids for high-resolution epitope data. The resulting CLIC1 peptide microarrays were incubated with the antibody samples at concentrations of 1 μg/ml, 10 μg/ml, 100 μg/ml and 250 μg/ml in incubation buffer, followed by staining with secondary and control antibodies and reading with a LI-COR Odyssey Imaging System. The intensity of the points and peptide annotation were quantified with the PepSlide® Analyzer.
(§2) Conversely, incubation of a second copy of the microarray of CLIC1 peptides with the tmCLIC1omab monoclonal antibody gave an antibody response with the epitopes formed by peptides adjacent to the VELF consensus motif (SEQ ID NO:22), with all peptide lengths having low or moderate signal-to-noise ratios. Additional very weak interactions of the antibody with the HA control peptides were observed, perhaps because of a cross-reaction or a less specific antibody bond. With the peptides consisting of 10 and […], longer […] (10 aa) (SEQ ID NO:23) and […] (15 aa) (SEQ ID NO:24) consensus motifs were observed, the underlined letters of which form part of linker […] (SEQ ID NO:25) specific to the microarray.

QVELF sequence = target: T2, QVELF sequence; assay: PEPperMAP linear peptide microarray
Protocol: as §1, §2

[1] = target: T3, human CLIC1 protein located on the plasma membrane (tmCLIC1) (human, UniProt O00299 2-241); assay: cell-based or functional assay
[2] = target: CLIC1 protein of microglial cells (BV-2), transmembrane form after stimulation (mouse, UniProt Q9Z1Q5 2-241); assay: cell-based or functional assay
[3] = target: T3, human CLIC1 protein located on the …; assay: not specified (same experimental models as tmCLIC1omab)

| Binder | binding result (QVELFV sequence) | binding result (QVELF sequence) | ROS production over time in human glioblastoma cells (fluorescence) [1] | membrane current, patch-clamp in whole-cell configuration on BV2 microglial cells after β-amyloid [2] | binding result [3] |
| --- | --- | --- | --- | --- | --- |
| B1 | binds | binds | ~5 fold | ~4 fold |  |
| B2 |  |  |  |  | binds |
